Numbered stars: 1 amine (or outer) side, 2 acyl side, 3 side chain; on linkers, the order of the positions; unused ones are H or OH. Bridge positions count the residues as written; N and C are the ends. Side chains are listed from the residue outwards. Ends that are not written are not given here. * marks the point of attachment. C20 diacid = O=C(O)CCCCCCCCCCCCCCCCCCC(=O)*; γGlu = O=C(O)[C@H](CCC(=O)[*:2])N[*:1]
How the values were obtained:
[1] = molecular target: T1, human amylin 3(a) receptor (human calcitonin receptor plus RAMP-3) (human, UniProt P30988 25-474; O60896 24-148, limits assumed); test: cell-based or functional assay
T1 sequence (looked up) 1: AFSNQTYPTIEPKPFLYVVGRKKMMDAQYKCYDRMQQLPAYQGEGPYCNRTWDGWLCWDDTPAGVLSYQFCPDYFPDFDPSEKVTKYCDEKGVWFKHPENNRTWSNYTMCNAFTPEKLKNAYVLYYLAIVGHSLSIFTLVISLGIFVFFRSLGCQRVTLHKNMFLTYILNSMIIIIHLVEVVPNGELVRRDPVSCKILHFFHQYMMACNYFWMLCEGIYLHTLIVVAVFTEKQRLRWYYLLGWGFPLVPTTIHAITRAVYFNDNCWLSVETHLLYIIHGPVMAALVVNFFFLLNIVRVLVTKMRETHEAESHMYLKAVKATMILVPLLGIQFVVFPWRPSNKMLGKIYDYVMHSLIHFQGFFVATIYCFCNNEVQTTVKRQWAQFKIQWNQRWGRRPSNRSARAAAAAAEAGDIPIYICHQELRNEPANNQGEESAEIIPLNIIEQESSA
T1 sequence (looked up) 2: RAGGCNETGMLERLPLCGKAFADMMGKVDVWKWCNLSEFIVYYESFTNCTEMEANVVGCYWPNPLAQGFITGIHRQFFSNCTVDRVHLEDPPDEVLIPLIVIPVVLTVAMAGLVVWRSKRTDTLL

[2] = molecular target: T2, human calcitonin receptor (human, UniProt P30988 25-474); test: cell-based or functional assay
T2 sequence (looked up): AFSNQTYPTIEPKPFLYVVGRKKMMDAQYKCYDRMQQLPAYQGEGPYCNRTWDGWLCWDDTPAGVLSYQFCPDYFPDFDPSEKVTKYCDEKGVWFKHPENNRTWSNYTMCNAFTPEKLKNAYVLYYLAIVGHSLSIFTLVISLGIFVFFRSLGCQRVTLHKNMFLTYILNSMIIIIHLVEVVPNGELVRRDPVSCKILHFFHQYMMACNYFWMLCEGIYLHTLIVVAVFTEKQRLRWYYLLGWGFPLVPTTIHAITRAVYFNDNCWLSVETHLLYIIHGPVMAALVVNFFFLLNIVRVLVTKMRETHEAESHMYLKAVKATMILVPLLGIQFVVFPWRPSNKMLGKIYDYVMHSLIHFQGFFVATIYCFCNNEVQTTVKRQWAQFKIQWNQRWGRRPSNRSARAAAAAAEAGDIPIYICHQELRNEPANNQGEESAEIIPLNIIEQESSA

[3] = molecular target: T1, human amylin 3(a) receptor (human …); test: SPA competition binding, displacement of 125I-rat amylin from membranes of Amylin 3(a)/CRE-luc BHK cells (Assay V)
Method in brief: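 SPA beads with BHK Amylin 3(a)/CRE-luc cell membranes (35 ng/μL final) in 50 mM Hepes pH 7.4, 1 mM CaCl2, 5 mM MgCl₂, 0.1% OA, 0.02% Tween20.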

B1: N^ε1-[(4S)-4-carboxy-4-(19-carboxynonadecanoylamino)butanoyl]-[Glu14,Arg17,Pro21,Pro27,Arg35]-h-amylin (peptide)
peptide: K([γGlu-C20 diacid])CNTATCATQRLAEFLRHSSPNFGAIPSSTNVGSRTY-NH2
modifications: disulfide 2-7; N-terminus assumed
SMILES: CC[C@H](C)[C@H](NC(=O)[C@H](C)NC(=O)CNC(=O)[C@H](Cc1ccccc1)NC(=O)[C@H](CC(N)=O)NC(=O)[C@@H]1CCCN1C(=O)[C@H](CO)NC(=O)[C@H](CO)NC(=O)[C@H](Cc1c[nH]cn1)NC(=O)[C@H](CCCNC(=N)N)NC(=O)[C@H](CC(C)C)NC(=O)[C@H](Cc1ccccc1)NC(=O)[C@H](CCC(=O)O)NC(=O)[C@H](C)NC(=O)[C@H](CC(C)C)NC(=O)[C@H](CCCNC(=N)N)NC(=O)[C@H](CCC(N)=O)NC(=O)[C@@H](NC(=O)[C@H](C)NC(=O)[C@@H]1CSSC[C@H](NC(=O)[C@@H](N)CCCCNC(=O)CC[C@H](NC(=O)CCCCCCCCCCCCCCCCCCC(=O)O)C(=O)O)C(=O)N[C@@H](CC(N)=O)C(=O)N[C@@H]([C@@H](C)O)C(=O)N[C@@H](C)C(=O)N[C@@H]([C@@H](C)O)C(=O)N1)[C@@H](C)O)C(=O)N1CCC[C@H]1C(=O)N[C@@H](CO)C(=O)N[C@@H](CO)C(=O)N[C@H](C(=O)N[C@@H](CC(N)=O)C(=O)N[C@H](C(=O)NCC(=O)N[C@@H](CO)C(=O)N[C@@H](CCCNC(=N)N)C(=O)N[C@H](C(=O)N[C@@H](Cc1ccc(O)cc1)C(N)=O)[C@@H](C)O)C(C)C)[C@@H](C)O
notes: also called compound 51
In the case of B1, the “Ratio hCT/hAmylin funct.” value [1] is reported as 14, the “hAmylin-R funct. EC50” value [1] is reported as 0.372 nM and the “hCTR funct. EC50” value [2] is reported as 5.22 nM. For the same binder, the IC50 [3] was 0.828 nM.

B2: N^ε1-[(4S)-4-carboxy-4-(19-carboxynonadecanoylamino)butanoyl]-[Glu14,Arg17,Pro21,Pro27,Pro34,Arg35]-h-amylin (peptide)
peptide: K([γGlu-C20 diacid])CNTATCATQRLAEFLRHSSPNFGAIPSSTNVGPRTY-NH2
modifications: disulfide 2-7; N-terminus assumed
SMILES: CC[C@H](C)[C@H](NC(=O)[C@H](C)NC(=O)CNC(=O)[C@H](Cc1ccccc1)NC(=O)[C@H](CC(N)=O)NC(=O)[C@@H]1CCCN1C(=O)[C@H](CO)NC(=O)[C@H](CO)NC(=O)[C@H](Cc1c[nH]cn1)NC(=O)[C@H](CCCNC(=N)N)NC(=O)[C@H](CC(C)C)NC(=O)[C@H](Cc1ccccc1)NC(=O)[C@H](CCC(=O)O)NC(=O)[C@H](C)NC(=O)[C@H](CC(C)C)NC(=O)[C@H](CCCNC(=N)N)NC(=O)[C@H](CCC(N)=O)NC(=O)[C@@H](NC(=O)[C@H](C)NC(=O)[C@@H]1CSSC[C@H](NC(=O)[C@@H](N)CCCCNC(=O)CC[C@H](NC(=O)CCCCCCCCCCCCCCCCCCC(=O)O)C(=O)O)C(=O)N[C@@H](CC(N)=O)C(=O)N[C@@H]([C@@H](C)O)C(=O)N[C@@H](C)C(=O)N[C@@H]([C@@H](C)O)C(=O)N1)[C@@H](C)O)C(=O)N1CCC[C@H]1C(=O)N[C@@H](CO)C(=O)N[C@@H](CO)C(=O)N[C@H](C(=O)N[C@@H](CC(N)=O)C(=O)N[C@H](C(=O)NCC(=O)N1CCC[C@H]1C(=O)N[C@@H](CCCNC(=N)N)C(=O)N[C@H](C(=O)N[C@@H](Cc1ccc(O)cc1)C(N)=O)[C@@H](C)O)C(C)C)[C@@H](C)O
In the case of B2, the “hAmylin-R funct. EC50” value [1] is reported as 0.376 nM, the “hCTR funct. EC50” value [2] is reported as 6.38 nM and the IC50 [3] is reported as 0.163 nM.

B3: N^ε1-[(4S)-4-carboxy-4-(19-carboxynonadecanoylamino)butanoyl]-[Glu14,Arg17,Pro21,Pro27,His34,Glu35]-h-amylin (peptide)
peptide: K([γGlu-C20 diacid])CNTATCATQRLAEFLRHSSPNFGAIPSSTNVGHETY-NH2
modifications: disulfide 2-7; N-terminus assumed
SMILES: CC[C@H](C)[C@H](NC(=O)[C@H](C)NC(=O)CNC(=O)[C@H](Cc1ccccc1)NC(=O)[C@H](CC(N)=O)NC(=O)[C@@H]1CCCN1C(=O)[C@H](CO)NC(=O)[C@H](CO)NC(=O)[C@H](Cc1c[nH]cn1)NC(=O)[C@H](CCCNC(=N)N)NC(=O)[C@H](CC(C)C)NC(=O)[C@H](Cc1ccccc1)NC(=O)[C@H](CCC(=O)O)NC(=O)[C@H](C)NC(=O)[C@H](CC(C)C)NC(=O)[C@H](CCCNC(=N)N)NC(=O)[C@H](CCC(N)=O)NC(=O)[C@@H](NC(=O)[C@H](C)NC(=O)[C@@H]1CSSC[C@H](NC(=O)[C@@H](N)CCCCNC(=O)CC[C@H](NC(=O)CCCCCCCCCCCCCCCCCCC(=O)O)C(=O)O)C(=O)N[C@@H](CC(N)=O)C(=O)N[C@@H]([C@@H](C)O)C(=O)N[C@@H](C)C(=O)N[C@@H]([C@@H](C)O)C(=O)N1)[C@@H](C)O)C(=O)N1CCC[C@H]1C(=O)N[C@@H](CO)C(=O)N[C@@H](CO)C(=O)N[C@H](C(=O)N[C@@H](CC(N)=O)C(=O)N[C@H](C(=O)NCC(=O)N[C@@H](Cc1c[nH]cn1)C(=O)N[C@@H](CCC(=O)O)C(=O)N[C@H](C(=O)N[C@@H](Cc1ccc(O)cc1)C(N)=O)[C@@H](C)O)C(C)C)[C@@H](C)O
notes: also called compound 107
In the case of B3, the “Ratio hCT/hAmylin funct.” value [1] is reported as 6.3, the “hAmylin-R funct. EC50” value [1] is reported as 0.405 nM and the “hCTR funct. EC50” value [2] is reported as 2.54 nM. The IC50 [3] was 0.387 nM.

B4: N^ε1-[(4S)-4-carboxy-4-(19-carboxynonadecanoylamino)butanoyl]-[Glu14,Arg17,Pro21,Pro27,Pro34,Pro37]-h-amylin (peptide)
peptide: K([γGlu-C20 diacid])CNTATCATQRLAEFLRHSSPNFGAIPSSTNVGPNTP-NH2
modifications: disulfide 2-7; N-terminus assumed
SMILES: CC[C@H](C)[C@H](NC(=O)[C@H](C)NC(=O)CNC(=O)[C@H](Cc1ccccc1)NC(=O)[C@H](CC(N)=O)NC(=O)[C@@H]1CCCN1C(=O)[C@H](CO)NC(=O)[C@H](CO)NC(=O)[C@H](Cc1c[nH]cn1)NC(=O)[C@H](CCCNC(=N)N)NC(=O)[C@H](CC(C)C)NC(=O)[C@H](Cc1ccccc1)NC(=O)[C@H](CCC(=O)O)NC(=O)[C@H](C)NC(=O)[C@H](CC(C)C)NC(=O)[C@H](CCCNC(=N)N)NC(=O)[C@H](CCC(N)=O)NC(=O)[C@@H](NC(=O)[C@H](C)NC(=O)[C@@H]1CSSC[C@H](NC(=O)[C@@H](N)CCCCNC(=O)CC[C@H](NC(=O)CCCCCCCCCCCCCCCCCCC(=O)O)C(=O)O)C(=O)N[C@@H](CC(N)=O)C(=O)N[C@@H]([C@@H](C)O)C(=O)N[C@@H](C)C(=O)N[C@@H]([C@@H](C)O)C(=O)N1)[C@@H](C)O)C(=O)N1CCC[C@H]1C(=O)N[C@@H](CO)C(=O)N[C@@H](CO)C(=O)N[C@H](C(=O)N[C@@H](CC(N)=O)C(=O)N[C@H](C(=O)NCC(=O)N1CCC[C@H]1C(=O)N[C@@H](CC(N)=O)C(=O)N[C@H](C(=O)N1CCC[C@H]1C(N)=O)[C@@H](C)O)C(C)C)[C@@H](C)O
With B4 the “Ratio hCT/hAmylin funct.” value [1] was 0.9, the “hAmylin-R funct. EC50” value [1] was 0.105 nM and the “hCTR funct. EC50” value [2] was 0.09 nM. The IC50 [3] was 0.214 nM.

B5: N^ε1-[(4S)-4-carboxy-4-(19-carboxynonadecanoylamino)butanoyl]-[Glu14,Arg17,Pro21,Pro27,Pro34,His35]-h-amylin (peptide)
peptide: K([γGlu-C20 diacid])CNTATCATQRLAEFLRHSSPNFGAIPSSTNVGPHTY-NH2
modifications: disulfide 2-7
In the case of B5, the “hAmylin-R funct. EC50” value [1] is reported as 0.101 nM, the “hCTR funct. EC50” value [2] is reported as 1.45 nM and the IC50 [3] is reported as 0.179 nM.

B6: N^ε1-[(4S)-4-carboxy-4-(19-carboxynonadecanoylamino)butanoyl]-[Glu14,Arg17,Pro21,Pro27,Pro34,Glu35]-h-amylin (peptide)
peptide: K([γGlu-C20 diacid])CNTATCATQRLAEFLRHSSPNFGAIPSSTNVGPETY-NH2
modifications: disulfide 2-7; N-terminus assumed
SMILES: CC[C@H](C)[C@H](NC(=O)[C@H](C)NC(=O)CNC(=O)[C@H](Cc1ccccc1)NC(=O)[C@H](CC(N)=O)NC(=O)[C@@H]1CCCN1C(=O)[C@H](CO)NC(=O)[C@H](CO)NC(=O)[C@H](Cc1c[nH]cn1)NC(=O)[C@H](CCCNC(=N)N)NC(=O)[C@H](CC(C)C)NC(=O)[C@H](Cc1ccccc1)NC(=O)[C@H](CCC(=O)O)NC(=O)[C@H](C)NC(=O)[C@H](CC(C)C)NC(=O)[C@H](CCCNC(=N)N)NC(=O)[C@H](CCC(N)=O)NC(=O)[C@@H](NC(=O)[C@H](C)NC(=O)[C@@H]1CSSC[C@H](NC(=O)[C@@H](N)CCCCNC(=O)CC[C@H](NC(=O)CCCCCCCCCCCCCCCCCCC(=O)O)C(=O)O)C(=O)N[C@@H](CC(N)=O)C(=O)N[C@@H]([C@@H](C)O)C(=O)N[C@@H](C)C(=O)N[C@@H]([C@@H](C)O)C(=O)N1)[C@@H](C)O)C(=O)N1CCC[C@H]1C(=O)N[C@@H](CO)C(=O)N[C@@H](CO)C(=O)N[C@H](C(=O)N[C@@H](CC(N)=O)C(=O)N[C@H](C(=O)NCC(=O)N1CCC[C@H]1C(=O)N[C@@H](CCC(=O)O)C(=O)N[C@H](C(=O)N[C@@H](Cc1ccc(O)cc1)C(N)=O)[C@@H](C)O)C(C)C)[C@@H](C)O
With B6 the “Ratio hCT/hAmylin funct.” value [1] was 5.2, the “hAmylin-R funct. EC50” value [1] was 0.161 nM and the “hCTR funct. EC50” value [2] was 0.841 nM. It also gave an IC50 [3] of 0.14 nM.
